From publication PMC10899793, “Toxin release by conditional remodelling of ParDE1 from Mycobacterium tuberculosis leads to gyrase inhibition” (Nucleic Acids Research, 2023)

B1: ParD1 antitoxin of Mycobacterium tuberculosis H37Rv (natural protein)
chain: MGKNTSFVLDEHYSAFIDGEIAAGRYRSASEVIRSALRLLEDRETQLRALREALEAGERSGSSTPFDFDGFLGRKRADASRGR
notes: Antitoxin ParD1, gene parD1 (rv1960c), M. tuberculosis H37Rv; printed mass 9.21 kDa; residues are numbered up to R83; also called primary ParD1; auxiliary ParD1
B2: ParE2 toxin of Mycobacterium tuberculosis H37Rv (natural protein)
chain: MTRRLRVHNGVEDDLFEAFSYYADAAPDQIDRLYNLFVDAVTKRIPQAPNAFAPLFKHYRHIYLRPFRYYVAYRTTDEAIDILAVRHGMENPNAVEAEISGRTFE

Tests used:
crystal structure = target: the molecule itself; assay: crystal structure
[1] = target: T1, ParE1 toxin of Mycobacterium tuberculosis H37Rv (Mycobacterium tuberculosis H37Rv, UniProt P9WHG7 1-98); assay: SEC; conditions: both partners purified
T1 construct: also called Rv1959c; not shown: 6His-SUMO, N-terminal, cleaved
T1 sequence: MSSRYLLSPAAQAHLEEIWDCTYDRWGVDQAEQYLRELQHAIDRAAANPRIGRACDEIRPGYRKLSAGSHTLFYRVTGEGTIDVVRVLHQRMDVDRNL

[2] = target: T1, ParE1 toxin of Mycobacterium …; assay: mass photometry; conditions: both partners purified
[3] = target: Mycobacterium tuberculosis DNA gyrase holoenzyme GyrB2A2 (Mycobacterium tuberculosis) (UniProt P9WG47)
Chain of Mycobacterium tuberculosis DNA gyrase holoenzyme GyrB2A2 (Mycobacterium tuberculosis) (P9WG47 whole entry, chain 1 of 2): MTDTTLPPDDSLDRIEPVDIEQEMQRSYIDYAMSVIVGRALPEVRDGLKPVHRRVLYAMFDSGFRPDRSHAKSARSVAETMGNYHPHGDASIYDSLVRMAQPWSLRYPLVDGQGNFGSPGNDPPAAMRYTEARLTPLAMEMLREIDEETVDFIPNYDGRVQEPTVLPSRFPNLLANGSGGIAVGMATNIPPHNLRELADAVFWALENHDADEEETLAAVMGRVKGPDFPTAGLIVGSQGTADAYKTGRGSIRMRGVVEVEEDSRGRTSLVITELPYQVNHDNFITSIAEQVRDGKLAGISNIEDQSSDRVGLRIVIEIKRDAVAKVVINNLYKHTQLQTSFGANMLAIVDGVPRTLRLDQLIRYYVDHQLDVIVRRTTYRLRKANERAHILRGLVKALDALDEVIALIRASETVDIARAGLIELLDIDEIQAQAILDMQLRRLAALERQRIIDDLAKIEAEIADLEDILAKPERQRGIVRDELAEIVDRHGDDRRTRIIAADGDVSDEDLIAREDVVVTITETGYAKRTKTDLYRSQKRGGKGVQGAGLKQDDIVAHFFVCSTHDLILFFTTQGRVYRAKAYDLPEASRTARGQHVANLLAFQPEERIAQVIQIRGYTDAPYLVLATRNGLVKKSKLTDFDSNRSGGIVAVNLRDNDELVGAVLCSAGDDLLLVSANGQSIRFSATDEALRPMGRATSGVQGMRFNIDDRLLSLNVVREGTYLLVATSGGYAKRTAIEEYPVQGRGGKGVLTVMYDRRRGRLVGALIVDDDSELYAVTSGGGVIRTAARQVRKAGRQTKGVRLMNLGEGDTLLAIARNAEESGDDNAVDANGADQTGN
Chain of Mycobacterium tuberculosis DNA gyrase holoenzyme GyrB2A2 (Mycobacterium tuberculosis) (P9WG45 whole entry, chain 2 of 2, further chain): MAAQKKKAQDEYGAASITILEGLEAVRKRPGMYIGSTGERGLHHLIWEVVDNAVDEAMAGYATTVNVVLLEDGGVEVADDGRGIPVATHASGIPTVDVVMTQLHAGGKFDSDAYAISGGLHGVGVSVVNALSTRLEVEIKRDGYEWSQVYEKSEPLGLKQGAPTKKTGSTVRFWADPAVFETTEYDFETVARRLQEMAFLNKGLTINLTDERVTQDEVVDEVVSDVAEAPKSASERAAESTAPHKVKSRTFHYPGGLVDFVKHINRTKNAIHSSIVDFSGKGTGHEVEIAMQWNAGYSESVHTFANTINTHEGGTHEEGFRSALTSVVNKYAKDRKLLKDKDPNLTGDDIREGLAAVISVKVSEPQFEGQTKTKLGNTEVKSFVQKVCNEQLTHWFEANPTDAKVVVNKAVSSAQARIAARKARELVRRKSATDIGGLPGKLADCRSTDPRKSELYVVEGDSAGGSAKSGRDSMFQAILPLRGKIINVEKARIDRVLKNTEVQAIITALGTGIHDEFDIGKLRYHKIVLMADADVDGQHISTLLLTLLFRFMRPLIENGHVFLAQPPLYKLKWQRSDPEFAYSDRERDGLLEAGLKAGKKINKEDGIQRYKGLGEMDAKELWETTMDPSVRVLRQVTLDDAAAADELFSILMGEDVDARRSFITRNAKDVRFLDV

Binder	stoichiometry N (crystal structure)	stoichiometry N [1]	stoichiometry N [2]	linearisation of supercoiled pSG483 in the M. tuberculosis gyrase DNA relaxation (cleavage) assay; ParE2 titrated against constant GyrB2A2 (31.25 nM); value at the highest concentration tested (% of substrate pSG483 linearised) [3]
B1	4	2 ParD1 per ParE1 (4:2 heterohexamer)	1 ParD1 per ParE1 (2:2 heterotetramer)	
B2				50
